According to patent publication US20260224727A1, “COMPOUNDS AND METHODS FOR TREATING, AMELIORATING, OR […]” (Yale University, priority 2023, published 2026):
Bridge positions count the residues as written; N and C are the ends. Square brackets hold non-standard residues; d marks the D form. Ends that are not written are not given here. Cit = NC(=O)NCCC[C@H](N)C(=O)O

T1: recombinant biotin-ASGPR1 (Homo sapiens, UniProt P07306)
T1 construct: purchased Viva Biotech
T1 sequence (P07306 1-291): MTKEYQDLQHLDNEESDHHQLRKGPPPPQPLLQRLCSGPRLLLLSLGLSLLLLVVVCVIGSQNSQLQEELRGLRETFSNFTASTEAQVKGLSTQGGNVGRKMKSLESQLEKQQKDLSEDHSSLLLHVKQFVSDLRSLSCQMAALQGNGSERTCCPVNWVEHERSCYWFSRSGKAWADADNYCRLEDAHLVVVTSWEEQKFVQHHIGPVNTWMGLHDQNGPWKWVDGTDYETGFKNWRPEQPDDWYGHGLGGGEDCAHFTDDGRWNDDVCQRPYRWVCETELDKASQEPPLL

B1: CCP1-GN4 (peptide)
peptide: HQCHQEST[Cit]GRSRGRCGRSGS-OH
modifications: disulfide 3-16; not fully specified (N-terminus); also: Dab(N3) side-chain azide joined by CuAAC triazole to Target A001A-PEG4-Alkyne (tri-GalNAc)

Legend:
[1] = molecular target: mouse anti-citrullinated epitope recombinant antibody clone 12G1 (anti-CCP1); experiment: SPR binding of CCP1-GN4 to immobilized anti-CCP1 antibody (Biacore S200, steady state affinity); conditions: antibody clone 12G1 immobilized on CM5 chip, 25° C., steady state affinity model, read-out: KD (anti-CCP)
Protocol: With reference to FIG. 5A, binding of CCP1-GN4 was assessed using a surface plasmon resonance (SPR) on a Biacore S200 instrument. Prior to binding studies, 20 μg/mL mouse anti-citrullinated epitope recombinant antibody clone 12G1 (anti-CCP1) (Creative BioLabs) was immobilized to a Series S Sensor Chip CM5 using amine coupling to a target of 1.000 response units (RU) in 10 mM sodium acetate buffer pH 5.5. In parallel, normal human IgG isotype control (R&D Systems) was immobilized as a reference subtraction control using identical conditions. Sensor chips and reagents necessary for amine coupling were purchased from Cytiva.
CCP1-GN4 was serially diluted in 100% DMSO and transferred to a 96-well microplate. 1×HBS-P buffer (Cytiva) was added to dilute sample to final test concentrations (1000 nM, 250 nM, 62.5 nM, 15.6 nM, 3.9 nM, 1 nM) in 1% DMSO. A solution of 1×HBS-P (Cytiva) containing 1% DMSO was prepared as running buffer immediately prior to binding experiments.
Samples were injected over the sensor chip with a contact time of 300 seconds, dissociation time of 600 seconds, and a flow rate of 30 μL/minute at 25° C. Between injections, a solution containing 50% DMSO in 1×HBS-P buffer was used to wash any remaining bound analyte from the sensor chip surface. […]

[2] = molecular target: T1, recombinant biotin-ASGPR1; experiment: SPR binding to ASGPR1 (Biacore 8K)
Protocol: With reference to FIG. 5B, binding to ASGPR1 was characterized by surface plasmon resonance (SPR) on a Biacore 8K instrument. Preceding binding measurement, recombinant biotin-ASGPR1 (Viva Biotech) was diluted to a concentration of 2 μg/mL in a buffer containing 20 mM Tris pH 8.0, 200 mM NaCl, 1 mM TCEP, 2 mM CaCl2), and 0.01% Tween-20. A Sensor Chip SA (Cytiva) was conditioned with three injections of 1 M NaCl in 50 mM NaOH prior to capturing […] ASGPR on the sensor chip surface. Capture was performed at a flow rate of 5 μL/min with a target level of 1000 RU. CCP1-GN4 was serially diluted across 10 points to final test concentrations (25 nM, 8.3 nM, 2.8 nM, 0.93 nM, 0.3 nM, 0.1 nM, 0.03 nM, 0.01 nM, 0.004 nM, 0.0013 nM) in buffer composed of 20 mM Tris pH 8.0, 200 mM NaCl, 1 mM TCEP, 2 mM CaCl2), 0.01% Tween-20, and a final solvent composition of 3% DMSO.
Samples were injected over the sensor chip surface with a contact time of 180 seconds, dissociation time of 600 seconds, flow rate of 40 μL/min and temperature of 25° C. Data files were fit to multi-cycle kinetics and steady state models using Biacore Insight Evaluation software to determine kinetic and affinity binding parameters.

[3] = Plasma stability in mouse plasma (LCMS, percent remaining); type: in vitro ADME; conditions: 37° C., 2 hours incubation, read-out: T1/2 plasma stability
Protocol: (§1) With reference to FIGS. 6A and 6B, plasma stability […] of CCP1-GN4 was measured at WuXi Biologics. The compound was incubated in human, rat, or mouse plasma at 37° C. for 2 hours. Aliquots were taken at various time points and the percent remaining of CCP1-GN4 was quantified by LCMS. For plasma protein binding (PPB), the compound (CCP1-GN4) was incubated with human, rat, or mouse plasma protein and the degree of plasma protein binding was determined by ultracentrifugation and LCMS.

[4] = Plasma stability in rat plasma (LCMS, percent remaining); type: in vitro ADME; conditions: 37° C., 2 hours incubation, read-out: T1/2 plasma stability
Protocol: as §1

[5] = Plasma stability in human plasma (LCMS, percent remaining); type: in vitro ADME; conditions: 37° C., 2 hours incubation, read-out: T1/2 plasma stability
Protocol: as §1

[6] = molecular target: mouse anti-citrullinated epitope recombinant antibody clone 12G1 (anti-CCP1) (Creative BioLabs)
[7] = molecular target: mouse anti-citrullinated epitope recombinant antibody clone 12G1 (anti-CCP1) (Creative BioLabs); experiment: SPR (Biacore S200), antibody 12G1 amine-coupled on CM5, CCP1-GN4 as analyte, steady state affinity model
[8] = molecular target: recombinant biotin-ASGPR1 (Viva Biotech); experiment: SPR (Biacore 8K), biotin-ASGPR1 captured on SA chip, CCP1-GN4 as analyte, multi-cycle kinetics and steady state models
[9] = molecular target: recombinant biotin-ASGPR1 (Viva Biotech); experiment: SPR (Biacore 8K), biotin-ASGPR1 captured on Sensor Chip SA, CCP1-GN4 as analyte, multi-cycle kinetics, 1:1 binding model, 25 C

Molecule | Kd [1] | Kd [2] | half-life [3] | half-life [4] | half-life [5] | EC50 (read off the curve); Anti-CCP1 MFI of 12G1 with goat anti-mouse AF488 in HEK-293-ASGPR cells [6] | Kd [7] | Kd [8] | koff [9] | kon [9]
CC(=O)N[C@H]1[C@H](OCCOCCOCCNC(=O)CCOCC(COCCC(=O)NCCOCCOCCO[C@@H]2O[C@H](CO)[C@H](O)[C@H](O)[C@H]2NC(C)=O)(COCCC(=O)NCCOCCOCCO[C@@H]2O[C@H](CO)[C@H](O)[C@H](O)[C@H]2NC(C)=O)NC(=O)CNC(=O)CCOCCOCCOCCOCc2cn(CC[C@H](N)C(=O)N[C@@H](Cc3c[nH]cn3)C(=O)N[C@@H](CCC(N)=O)C(=O)N[C@H]3CSSC[C@@H](C(=O)NCC(=O)N[C@@H](CCCNC(=N)N)C(=O)N[C@@H](CO)C(=O)NCC(=O)N[C@@H](CO)C(=O)O)NC(=O)[C@H](CCCNC(=N)N)NC(=O)CNC(=O)[C@H](CCCNC(=N)N)NC(=O)[C@H](CO)NC(=O)[C@H](CCCNC(=N)N)NC(=O)CNC(=O)[C@H](CCCNC(N)=O)NC(=O)[C@H]([C@@H](C)O)NC(=O)[C@H](CO)NC(=O)[C@H](CCC(=O)O)NC(=O)[C@H](CCC(N)=O)NC(=O)[C@H](Cc4c[nH]cn4)NC3=O)nn2)O[C@H](CO)[C@H](O)[C@@H]1O [CCP1-GN4] | 75 nM | 1.92 nM | > 290 min | > 290 min | > 290 min |  |  |  |  | 
B1 |  |  |  |  |  | 50 nM | 75 nM | 1.92 nM | 0.029 s⁻¹ | 1.51e+07 M⁻¹ s⁻¹
